One series relates to Classical Pathway (CP). Kind of series: Hemolytic assay, antibody-sensitized sheep erythrocytes in human serum. In kind it is cell-based. The settings on record: 1% human serum, read-out: IC50 (nM) Classical Pathway Hemolysis. The method, then: Anti-C3 antibody fragments are evaluated for their ability to inhibit hemolysis of antibody-sensitized sheep erythrocytes mediated by Classical Pathway (CP) or Alternative Pathway (AP) activation in human serum. For this, sheep erythrocytes are coated with hemolysin (rabbit anti-sheep antibodies) on the surface to activate the complement system in human serum resulting in C3 activation and subsequent formation of the Membrane Attack Complex (MAC). The MAC assembles on the membrane of sheep erythrocytes leading to cell lysis. The level of hemoglobin released from lysed erythrocytes is measured at OD 414 nm and is proportional to the complement activity present in the serum sample. For determining the ability of anti-C3 molecules to inhibit CP activity, human serum was diluted in GVB++ buffer (Complement technology) for optimal activation of the Classical Pathway (requires calcium and magnesium ions). Serial dilutions of anti-C3 test samples are prepared from this solution with a final concentration of 1% human serum for each datapoint (prior to addition to erythrocytes). The samples are incubated with antibody-sensitized sheep erythrocytes for 1 hour at 37° C. and released hemoglobin is measured in the supernatant after a centrifugation step.

The next series has as its target T1, human C3 P314L (Homo sapiens, UniProt P01024, P314L).
T1 construct: 6×His (N); made in house; host or cells: CHO (ExpiFectamine CHO Expression Kit)
Kind of series: SPR (Biacore T100) binding to C3 SNP1 P314L. As to conditions: for Kd: Table 20, SPR; for kd C3 SNP1 P314L: off-rate; for ka C3 SNP1 P314L: on-rate. The method, then: (§1) The kinetic parameters of the candidates are determined using a surface plasmon resonance (SPR) and Biacore T100 device. C3 and different variants thereof (Table 19) are immobilized as a ligand on a HC30M SPR sensor chip (XanTec bionanalytics, Germany) using EDC/[…] linking chemistry. Five increasing concentrations of each molecule (analyte) are consecutively injected using the single cycle kinetics (SCK) mode to determine the kinetic parameters. Regeneration between the candidates is done with 10 mM glycine*HCl, 2 M NaCl, pH 3.5. The data is fitted to a 1:1 Langmuir binding model and the kinetic parameters of on-rate (ka), off-rate (kd), and affinity […] were determined.
Single nucleotide polymorphism (SNP) in C3 has been observed across the population and certain SNPs were identified in genome-wide association studies (GWAS) to correlate with an increased risk to develop AMD. […] Very rare variants, which occur in less that 2.5% of the population include K155Q, R735W, S1619W, K65Q and R161W.
Proteins are expressed with N-terminal 6×His tag and purified using a HisTrap Excel HP column (GE Healthcare), followed by a size-exclusion chromatography step (SUPERDEX®20010/300GL; GE Healthcare).
For orientation: SPR reads the build-up and loss of mass on a sensor chip optically.

Series [1] is described as follows: In vitro BrM permeation assay, Ussing chamber. Format: in vitro ADME, porcine. The settings on record: 0.1 mg/ml, up to 72 h, in words. The method, then: Porcine Bruch's membrane samples are used for this measurement. Porcine eyes are collected from the slaughterhouse) no more than 6 hours after the animals were sacrificed and stored at 4° C. until use (on same day).
Preparation of enriched Bruch's Membrane (BrM): The eyes are placed into a disposable petri-dish and any residual tissue surrounding the eyeball is removed. The eyeball is incised next to the iris with a scalpel and the front part of the eye as well as lens, vitreous and retinal tissue are removed from the eyecup. […]
Sampling and membrane integrity analysis: For sampling at different timepoints (4 h, 24 h, 48 h and 72 h) the solution in the single compartments is mixed by carefully pipetting up and down and 90 μl were transferred separately from each sample and diffusate chamber to collection tubes. […] Accumulation of blue particles in the second compartment is observed and camera pictures are recorded to control for overall membrane integrity.
Sample analysis: 15 μl of each solution from the sample and diffusate chambers are effectively loaded on 2 precast polyacrylamide gels (NuPAGE Bis-Tris gels) together with a similar amount of stored mastermix as loading control. The first gel is analyzed by standard SDS-PAGE and Coomassie-based staining methods for protein detection (anti-C3 scFv). […]
Evaluation: Pictures of the SDS-gels are analyzed using ImageJ2 software (Fiji). […]

For the next series, the target named is T2, human C3b (Homo sapiens, UniProt P01024).
T2 construct: C3b is derived from native C3 and is the larger of two elements formed by the cleavage of C3
T2 sequence (P01024 23-667 limits assumed): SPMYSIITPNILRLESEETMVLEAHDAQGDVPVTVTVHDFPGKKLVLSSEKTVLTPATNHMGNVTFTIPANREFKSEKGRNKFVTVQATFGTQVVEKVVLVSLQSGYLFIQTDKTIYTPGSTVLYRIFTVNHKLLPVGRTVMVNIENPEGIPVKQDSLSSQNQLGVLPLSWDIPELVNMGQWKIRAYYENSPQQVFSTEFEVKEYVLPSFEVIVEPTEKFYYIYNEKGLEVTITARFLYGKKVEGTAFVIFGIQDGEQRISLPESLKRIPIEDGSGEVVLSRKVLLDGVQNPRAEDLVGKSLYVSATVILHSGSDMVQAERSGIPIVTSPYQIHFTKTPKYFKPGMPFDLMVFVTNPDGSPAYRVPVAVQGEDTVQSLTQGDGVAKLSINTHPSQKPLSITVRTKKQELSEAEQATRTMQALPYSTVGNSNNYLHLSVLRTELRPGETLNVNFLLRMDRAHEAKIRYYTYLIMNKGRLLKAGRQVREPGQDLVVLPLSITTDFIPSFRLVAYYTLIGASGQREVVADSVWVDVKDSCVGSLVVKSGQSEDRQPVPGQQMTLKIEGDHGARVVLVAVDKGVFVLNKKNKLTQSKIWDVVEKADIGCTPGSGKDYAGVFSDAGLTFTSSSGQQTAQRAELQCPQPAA
T2 sequence (P01024 749-1663 limits assumed): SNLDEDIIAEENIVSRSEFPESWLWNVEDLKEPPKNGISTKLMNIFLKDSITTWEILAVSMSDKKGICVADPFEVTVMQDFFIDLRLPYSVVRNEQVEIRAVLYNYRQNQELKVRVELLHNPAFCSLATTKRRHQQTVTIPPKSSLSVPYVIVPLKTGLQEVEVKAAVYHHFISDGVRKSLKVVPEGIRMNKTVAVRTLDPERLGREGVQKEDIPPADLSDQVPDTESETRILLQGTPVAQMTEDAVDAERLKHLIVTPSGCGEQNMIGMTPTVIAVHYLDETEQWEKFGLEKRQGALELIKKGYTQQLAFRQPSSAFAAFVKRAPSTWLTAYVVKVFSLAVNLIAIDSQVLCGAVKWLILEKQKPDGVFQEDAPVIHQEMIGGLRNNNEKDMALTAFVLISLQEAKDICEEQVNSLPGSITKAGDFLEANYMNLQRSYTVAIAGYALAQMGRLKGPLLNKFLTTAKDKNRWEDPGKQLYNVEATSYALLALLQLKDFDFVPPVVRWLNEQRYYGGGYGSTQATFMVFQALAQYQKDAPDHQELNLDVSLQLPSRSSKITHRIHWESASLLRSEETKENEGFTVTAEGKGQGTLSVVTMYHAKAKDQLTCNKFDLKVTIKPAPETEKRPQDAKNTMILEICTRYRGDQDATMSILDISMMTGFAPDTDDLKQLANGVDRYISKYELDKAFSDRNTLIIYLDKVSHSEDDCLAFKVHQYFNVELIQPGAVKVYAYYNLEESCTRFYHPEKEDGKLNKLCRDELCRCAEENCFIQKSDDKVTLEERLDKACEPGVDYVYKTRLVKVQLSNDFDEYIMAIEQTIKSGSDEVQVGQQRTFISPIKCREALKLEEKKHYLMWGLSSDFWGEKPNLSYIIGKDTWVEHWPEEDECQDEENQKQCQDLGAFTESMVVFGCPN
Kind of series: SPR (Biacore T100) binding to human C3b. As to conditions: for kd C3b: off-rate; for ka C3b: on-rate. Here is the method: as §1

The next series deals with Lectin Pathway. The experiment in a line: WEISLAB Complement system Screen, lectin pathway MAC (C5b-C9) formation. As to conditions: human serum; read-out: IC50 (nM) Lectin Pathway MAC deposition. Format: biochemical, human. Here is the method: To identify antibodies that block all 3 complement pathways, antibodies are screened using an enzyme immunoassay for the qualitative determination of functional classical, lectin and alternative complement pathways in human serum using the WEISLAB® Complement system Screen (Svar Life Science AB, Malmö, Sweden).
To monitor inhibition of the complement system in human serum, the scFv of the invention or the comparator molecules are tested using an enzyme immunoassay for the qualitative determination of functional classical, lectin and alternative complement pathways in human serum using the WEISLAB® Complement system Screen (Svar Life Science AB, Malmö, Sweden), following the supplier's instructions. The amount of C5b-C9 neoantigen generated is proportional to the functional activity of complement pathways. The scFv of the invention and the comparator molecules are tested in a concentration response curve and the IC50 for the inhibition is calculated using the GraphPadPrism software and a non-linear, 4 parameters curve regression.

Where [2] appears, read: Table 19, SPR, read-out: Affinity human C3b.
Where [3] appears, read: Table 20, SPR, read-out: KD (nM) C3b.

Where two headings read alike, the source gives them in different places.

Broadly, the IC50 is the concentration that inhibits the measured activity by half.

T1 sequence (P01024 23-1663 P314L): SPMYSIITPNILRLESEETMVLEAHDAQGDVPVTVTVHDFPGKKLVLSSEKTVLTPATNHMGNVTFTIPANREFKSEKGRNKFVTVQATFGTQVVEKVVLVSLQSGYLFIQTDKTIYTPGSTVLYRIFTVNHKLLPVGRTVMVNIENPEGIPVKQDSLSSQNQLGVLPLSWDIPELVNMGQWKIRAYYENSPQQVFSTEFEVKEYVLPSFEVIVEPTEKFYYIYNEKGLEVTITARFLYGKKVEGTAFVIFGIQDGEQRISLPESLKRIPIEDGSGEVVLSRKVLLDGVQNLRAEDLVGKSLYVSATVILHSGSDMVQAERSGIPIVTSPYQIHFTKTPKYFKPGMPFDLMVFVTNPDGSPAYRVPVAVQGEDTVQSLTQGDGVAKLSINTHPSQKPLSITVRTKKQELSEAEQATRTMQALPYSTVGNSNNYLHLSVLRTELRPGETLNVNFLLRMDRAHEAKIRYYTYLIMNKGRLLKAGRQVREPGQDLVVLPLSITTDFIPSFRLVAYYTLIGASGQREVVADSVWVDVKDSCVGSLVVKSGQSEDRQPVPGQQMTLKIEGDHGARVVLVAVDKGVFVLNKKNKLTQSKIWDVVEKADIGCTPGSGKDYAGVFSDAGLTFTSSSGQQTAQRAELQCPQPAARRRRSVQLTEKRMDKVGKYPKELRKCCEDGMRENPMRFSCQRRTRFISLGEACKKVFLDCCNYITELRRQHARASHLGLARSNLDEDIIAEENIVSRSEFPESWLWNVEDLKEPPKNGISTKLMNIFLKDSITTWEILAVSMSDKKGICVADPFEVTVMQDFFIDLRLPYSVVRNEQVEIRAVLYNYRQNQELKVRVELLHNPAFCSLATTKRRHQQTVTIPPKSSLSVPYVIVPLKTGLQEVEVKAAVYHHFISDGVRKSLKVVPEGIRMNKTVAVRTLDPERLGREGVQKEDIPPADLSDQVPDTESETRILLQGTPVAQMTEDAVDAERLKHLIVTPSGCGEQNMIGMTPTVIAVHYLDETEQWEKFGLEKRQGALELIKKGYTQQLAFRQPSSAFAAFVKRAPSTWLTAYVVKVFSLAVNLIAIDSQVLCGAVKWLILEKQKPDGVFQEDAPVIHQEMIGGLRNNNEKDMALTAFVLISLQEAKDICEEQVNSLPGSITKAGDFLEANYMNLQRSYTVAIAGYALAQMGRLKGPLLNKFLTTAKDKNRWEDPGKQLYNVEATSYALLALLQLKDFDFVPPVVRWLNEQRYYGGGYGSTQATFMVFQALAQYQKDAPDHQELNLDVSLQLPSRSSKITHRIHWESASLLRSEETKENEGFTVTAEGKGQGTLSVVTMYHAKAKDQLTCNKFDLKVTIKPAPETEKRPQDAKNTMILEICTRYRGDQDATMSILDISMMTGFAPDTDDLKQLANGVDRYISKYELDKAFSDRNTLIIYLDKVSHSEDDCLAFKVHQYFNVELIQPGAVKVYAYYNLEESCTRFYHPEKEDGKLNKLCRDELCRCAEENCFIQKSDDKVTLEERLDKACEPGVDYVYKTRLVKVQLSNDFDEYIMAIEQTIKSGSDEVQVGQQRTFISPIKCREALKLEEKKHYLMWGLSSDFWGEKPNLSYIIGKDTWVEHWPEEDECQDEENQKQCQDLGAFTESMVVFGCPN

B1: Clone I: humanized anti-C3 scFv, VH SEQ ID NO: 20, VL SEQ ID NO: 21; scFv SEQ ID NO: 26 or 27 (antibody, V domains shown)
VH: QVQLVESGGGSVQPGRSLRLSCAASGFTFSNYAMNWVRQAPGKGLEWVAVISYDGSNKYYADSVKGRFTISRDNSKNTLYLQMNSLRAEDTASYYCARAVGYHHARLDPWGCGTSVTVSS
VL: QLVLTQSPSASASLGASVKLTCTLSSAHKTYTIDWYQQQPEKCPRYLMQLKSDGSYTKGSGIPDRFSGSSSGAERYLTISSLQSEDEADYYCGTEGVGGYVFGGGTKLTVLG
modifications: VH; VL
Regarding B1, the results for the IC50 in the series on Classical Pathway (CP) and in the series with Lectin Pathway were 74 nM and 67 nM, respectively. The Kd in the series with human C3 P314L was 0.14 nM; in the series with human C3b (Table 16, read-out: C3b (Kd)), 0.14 nM; with human C3b (setting [2]) it was 0.149 nM; in the series with human C3b (setting [3]), 0.149 nM. Moreover, the “kd C3 SNP1 P314L” value with human C3 P314L worked out at 4.2e-05 s⁻¹. Besides, the “ka C3 SNP1 P314L” value in the series with human C3 P314L is 300000 M⁻¹ s⁻¹. Moreover, the “Diffusion/penetration through porcine Bruch's membrane” value in series [1] is “superior diffusion ability”. In the series with human C3b, the “kd C3b” value worked out at 4.8e-05 s⁻¹. In addition, the “ka C3b” value with human C3b was 320000 M⁻¹ s⁻¹.

B2: Clone II: humanized anti-C3 scFv, VH SEQ ID NO: 22, VL SEQ ID NO: 23; scFv SEQ ID NO: 28 or 29 (antibody, V domains shown)
VH: QVQLVESGGGSVQPGRSLRLSCAASGFTFSNYAMNWVRQAPGKGLEWVAIINVGGGTNYADSVKGRFTISRDNSKNTLYLQMNSLRAEDTASYYCARAVGYHHARLDPWGCGTSVTVSS
VL: QLVLTQSPSASASLGASVKLTCTLSSAHKTYTIDWYQQQPEKCPRYLMQLKSDGSYTKGSGIPDRFSGSSSGAERYLTISSLQSEDEADYYCGTEGVGGYVFGGGTKLTVLG
modifications: VH; VL
B2: the IC50 with Classical Pathway (CP) turned out to be 69 nM. For the same molecule, in the series with human C3 P314L, the Kd is < 0.04 nM, the “kd C3 SNP1 P314L” value is <1.1e-05 s⁻¹ and the “ka C3 SNP1 P314L” value came to 290000 M⁻¹ s⁻¹. For the same molecule, in the series with human C3b (setting [2]), the Kd is 0.05 nM. Further, in the series with human C3b (setting [3]), the Kd was determined as 0.05 nM. Also, in the series with human C3b, the “kd C3b” value was 1.2e-05 s⁻¹ and the “ka C3b” value was found to be 250000 M⁻¹ s⁻¹. The IC50 in the series with Lectin Pathway worked out at 71 nM.

The values are drawn from patent US12344663B2, “Anti-C3 antibodies and antigen-binding fragments thereof and their uses for treating eye or ocular diseases” (CDR-Life AG, priority 2021, dated 2025).
